The record followed here is patent US20220324969A1 (MYTHIC THERAPEUTICS, published 2022).

First the molecules themselves.
B1: IMGN779 (antibody, V domains shown)
VH: QVQLQQPGAEVVKPGASVKMSCKASGYTFTSYYIHWIKQTPGQGLEWVGVIYPGNDDISYNQKFQGKATLTADKSSTTAYMQLSSLTSEDSAVYYCAREVRLRYFDVWGQGTTVTVSS
VL: EIVLTQSPGSLAVSPGERVTMSCKSSQSVFFSSSQKNYLAWYQQIPGQSPRLLIYWASTRESGVPDRFTGSGSGTDFTLTISSVQPEDLAIYYCHQYLSSRTFGQGTKLEIK
notes: Unconjugated IgG from Expi293 supernatant; entries called heavy/light chain are variable domains; also called MYT1212; IMGN779 starting ABPC
B2: Vadastuximab (antibody, V domains shown)
VH: QVQLVQSGAEVKKPGASVKVSCKASGYTFTNYDINWVRQAPGQGLEWIGWIYPGDGSTKYNEKFKAKATLTADTSTSTAYMELRSLRSDDTAVYYCASGYEDAMDYWGQGTTVTVSS
VL: DIQMTQSPSSLSASVGDRVTINCKASQDINSYLSWFQQKPGKAPKTLIYRANRLVDGVPSRFSGSGSGQDYTLTISSLQPEDFATYYCLQYDEFPLTFGGGTKVEIK
notes: IgG from Expi293 supernatant; entries called heavy/light chain are variable domains; also called MYT1334; vadastuximab starting ABPC
B3: MYT2678 (antibody, V domains shown)
VH: QVQLVQSGAEVKKPGASVKVSCKASGYTFTNYDINWVRQAPGQGLEWIGWIYPGDGSTKYNEKFKAKATLTADTSTSTAYMELRSLRSDDTAVYYCASGYEDAMDYWGQGTTVTVSS
VL: DIQMTQSPSSLSASVGDRVTINCKASQDINSYLSWFQQKPGKAPKTLIYRANRLVDGVPSRFSGSGSGQDYTLTISSLQPEDFATYYCLQYDEFPHTFGGGTKVEIK
notes: IgG; vadastuximab VL variant #26 (L96H)
B4: MYT2673 (antibody, V domains shown)
VH: QVQLVQSGAEVKKPGASVKVSCKASGYTFTNYDINWVRQAPGQGLEWIGWIYPGDGSTKYNEKFKAKATLTADTSTSTAYMELRSLRSDDTAVYYCASGYEDAMDYWGQGTTVTVSS
VL: DIQMTQSPSSLSASVGDRVTINCKASQDINSYLSWFQQKPGKAPKTLIYRANRLVDGVPSRFSGSGSGQDYTLTISSLQPEDFATYYCLQHDEFPLTFGGGTKVEIK
notes: IgG; vadastuximab VL variant #21 (Y91H)
B5: MYT2663 (antibody, V domains shown)
VH: QVQLVQSGAEVKKPGASVKVSCKASGYTFTNYDINWVRQAPGQGLEWIGWIYPGDGSTKYNEKFKAKATLTADTSTSTAYMELRSLRSDDTAVYYCASGYEDAMDYWGQGTTVTVSS
VL: DIQMTQSPSSLSASVGDRVTINCKASQDINSYLHWFQQKPGKAPKTLIYRANRLVDGVPSRFSGSGSGQDYTLTISSLQPEDFATYYCLQYDEFPLTFGGGTKVEIK
notes: IgG; vadastuximab VL variant #11 (S34H)
B6: MYT1364 (antibody, V domains shown)
VH: QVQLVQSGAEVKKPGASVKVSCKASGYTFTNYDINWVRQAPGQGLEWIGWIYPGDGSTKYNEKFKAKATLTADTSTSTAYMELRSLRSDDTAVYYCASHYEDAMDYWGQGTTVTVSS
VL: DIQMTQSPSSLSASVGDRVTINCKASQDINSYLSWFQQKPGKAPKTLIYRANRLVDGVPSRFSGSGSGQDYTLTISSLQPEDFATYYCLQYDEFPLTFGGGTKVEIK
notes: IgG; vadastuximab VH variant #30 (G99H)
B7: MYT2661 (antibody, V domains shown)
VH: QVQLVQSGAEVKKPGASVKVSCKASGYTFTNYDINWVRQAPGQGLEWIGWIYPGDGSTKYNEKFKAKATLTADTSTSTAYMELRSLRSDDTAVYYCASGYEDAMDYWGQGTTVTVSS
VL: DIQMTQSPSSLSASVGDRVTINCKASQDINSHLSWFQQKPGKAPKTLIYRANRLVDGVPSRFSGSGSGQDYTLTISSLQPEDFATYYCLQYDEFPLTFGGGTKVEIK
notes: IgG; vadastuximab VL variant #9 (Y32H)

For one test, the target named is T1, CD33 (Sino Biological, Cat #12238-H08H) (UniProt P20138 18-259). Briefly: BLI, IgG captured on anti-human Fc biosensor, CD33 at low pH or high pH.
T1 sequence (P20138 18-259 limits assumed): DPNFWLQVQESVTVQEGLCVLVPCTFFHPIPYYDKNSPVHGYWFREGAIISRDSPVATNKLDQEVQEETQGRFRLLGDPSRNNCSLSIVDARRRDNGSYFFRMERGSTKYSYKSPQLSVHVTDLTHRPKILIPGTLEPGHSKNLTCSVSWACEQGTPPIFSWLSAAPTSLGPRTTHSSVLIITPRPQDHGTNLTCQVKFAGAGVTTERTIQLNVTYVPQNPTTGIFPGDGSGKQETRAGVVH
With B1, the binding result is reported as “binds”.
Still for that read-out and setting: then B2, with “binds”.

The target of a further test is T1, CD33 (Sino Biological, Cat #12238-H08H). Briefly: BLI, IgG captured on anti-human Fc sensor, pH 7.4 and pH 5.4.
Regarding B3, the binding result is reported as “no binding (tested: 50 nM CD33)”.
Same read-out and setting: then B4, with “no binding (tested: 50 nM CD33)”; and B5, with “no binding (tested: 50 nM CD33)”; and B6, with “no binding (tested: 50 nM CD33)”.
Still for that read-out and setting: then B7, with “no binding (tested: 50 nM CD33)”.
